Test results as given in paper PMC10628199, “Structural and functional investigations of syn-copalyl diphosphate synthase from Oryza sativa” (Communications Chemistry, 2023).
Values joined by “and” are separate entries in the source; they are usually repeats but may differ in a detail not shown here. Equal entries are not always repeated.

Key:
OsCyc1^69–767 = target: T1, OsCyc1^69–767 (Oryza sativa, UniProt Q0JF02, D367A); conditions: 0.1 mM GGPP soaked; 20 mM Tris-HCl pH 8.0, 200 mM NaCl, 2 mM DTT, 5 mM MgCl2; active site between beta and gamma domains
T1 construct: gene CPS4

OsCyc1 (full-length) = target: T2, OsCyc1 (full-length) (Oryza sativa, UniProt Q0JF02); conditions: pH 8.0, 16 °C, 2 h, no added Mg2+; product syn-CPP
T2 construct: gene CPS4

[1] = target: OsCyc1^D367A mutant (in complex with the substrate GGPP) (Oryza sativa) (UniProt Q0JF02); test: cryo-EM structure; OsCyc1 D367A at 3 mg/mL in buffer B, soaked with 0.1 mM GGPP; hexamer used as initial model for 3D classification; 4.0 Å
[2] = target: the molecule itself; test: cryo-EM structure; WT OsCyc1 at 1.8 mg/mL in buffer B (20 mM Tris-HCl pH 8.0, 200 mM NaCl, 2 mM DTT, 5 mM MgCl2); dimers, tetramers and hexamers selected separately after 2D classification
[3] = target: the molecule itself; test: crystal structure; OsCyc1 69-767 at 10 mg/mL, hanging drop, 18 °C, 2% 1,4-dioxane, 0.1 M Tris pH 8.0, 15% PEG 3,350; space group P212121, hexamer in the asymmetric unit; 3.5 Å

T2 sequence (Q0JF02 whole entry): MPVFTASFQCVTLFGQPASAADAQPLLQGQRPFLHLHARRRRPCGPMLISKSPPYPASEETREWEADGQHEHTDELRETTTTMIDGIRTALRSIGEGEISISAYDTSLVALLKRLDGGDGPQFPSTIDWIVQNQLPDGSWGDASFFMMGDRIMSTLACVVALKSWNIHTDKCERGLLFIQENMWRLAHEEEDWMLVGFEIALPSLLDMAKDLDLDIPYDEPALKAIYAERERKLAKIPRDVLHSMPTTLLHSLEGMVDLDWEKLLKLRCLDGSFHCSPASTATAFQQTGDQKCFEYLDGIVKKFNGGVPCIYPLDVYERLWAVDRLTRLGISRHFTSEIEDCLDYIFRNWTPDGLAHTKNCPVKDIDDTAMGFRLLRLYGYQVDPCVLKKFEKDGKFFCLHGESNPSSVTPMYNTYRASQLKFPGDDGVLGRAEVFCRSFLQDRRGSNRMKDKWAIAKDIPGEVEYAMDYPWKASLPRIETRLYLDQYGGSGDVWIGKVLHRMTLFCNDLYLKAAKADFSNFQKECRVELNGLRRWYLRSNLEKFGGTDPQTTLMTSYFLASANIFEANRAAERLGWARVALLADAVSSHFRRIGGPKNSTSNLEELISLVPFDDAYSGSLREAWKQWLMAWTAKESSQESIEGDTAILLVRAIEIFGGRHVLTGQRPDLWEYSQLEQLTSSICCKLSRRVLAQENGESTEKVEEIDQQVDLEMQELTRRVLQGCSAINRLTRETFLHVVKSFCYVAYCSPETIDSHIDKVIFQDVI
T1 sequence (Q0JF02 69-767 D367A): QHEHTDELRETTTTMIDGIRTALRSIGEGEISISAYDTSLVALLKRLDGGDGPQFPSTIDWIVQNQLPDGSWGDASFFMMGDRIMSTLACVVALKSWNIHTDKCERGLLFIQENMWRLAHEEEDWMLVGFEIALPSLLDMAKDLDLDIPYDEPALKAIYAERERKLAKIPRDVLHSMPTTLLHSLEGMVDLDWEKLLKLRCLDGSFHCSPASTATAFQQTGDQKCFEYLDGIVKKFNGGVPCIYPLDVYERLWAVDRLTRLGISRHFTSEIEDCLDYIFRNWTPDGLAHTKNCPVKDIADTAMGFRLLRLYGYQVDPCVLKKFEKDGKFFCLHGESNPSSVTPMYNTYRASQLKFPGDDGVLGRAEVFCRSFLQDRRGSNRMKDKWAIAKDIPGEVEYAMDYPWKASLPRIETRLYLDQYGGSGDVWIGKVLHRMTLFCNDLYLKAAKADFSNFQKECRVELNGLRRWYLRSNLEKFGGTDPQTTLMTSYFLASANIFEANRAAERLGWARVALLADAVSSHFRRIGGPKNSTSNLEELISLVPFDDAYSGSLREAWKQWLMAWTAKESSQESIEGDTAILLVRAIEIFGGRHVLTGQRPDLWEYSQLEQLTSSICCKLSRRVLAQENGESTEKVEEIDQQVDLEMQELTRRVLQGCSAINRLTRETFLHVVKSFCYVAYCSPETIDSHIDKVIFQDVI

## CC(C)=CCC/C(C)=C/CC/C(C)=C/CC/C(C)=C/COP(=O)(O)OP(=O)(O)O [GGPP]
OsCyc1^69–767
  cryo-EM structure of the complex, 4.0 A: cryo-EM structure of the OsCyc1^D367A mutant in complex with substrate GGPP
OsCyc1 (full-length)
  GC-MS of dephosphorylated product: OsCyc1 catalyzes GGPP to form syn-CPP

## OsCyc1^D367A mutant (in complex with the substrate GGPP) (from UniProt Q0JF02 69-767) (enzyme)
[1]
  stoichiometry N: 6

B1: OsCyc1, wild type, as used for cryo-EM (enzyme, Oryza sativa)
chain: LISKSPPYPASEETREWEADGQHEHTDELRETTTTMIDGIRTALRSIGEGEISISAYDTSLVALLKRLDGGDGPQFPSTIDWIVQNQLPDGSWGDASFFMMGDRIMSTLACVVALKSWNIHTDKCERGLLFIQENMWRLAHEEEDWMLVGFEIALPSLLDMAKDLDLDIPYDEPALKAIYAERERKLAKIPRDVLHSMPTTLLHSLEGMVDLDWEKLLKLRCLDGSFHCSPASTATAFQQTGDQKCFEYLDGIVKKFNGGVPCIYPLDVYERLWAVDRLTRLGISRHFTSEIEDCLDYIFRNWTPDGLAHTKNCPVKDIDDTAMGFRLLRLYGYQVDPCVLKKFEKDGKFFCLHGESNPSSVTPMYNTYRASQLKFPGDDGVLGRAEVFCRSFLQDRRGSNRMKDKWAIAKDIPGEVEYAMDYPWKASLPRIETRLYLDQYGGSGDVWIGKVLHRMTLFCNDLYLKAAKADFSNFQKECRVELNGLRRWYLRSNLEKFGGTDPQTTLMTSYFLASANIFEANRAAERLGWARVALLADAVSSHFRRIGGPKNSTSNLEELISLVPFDDAYSGSLREAWKQWLMAWTAKESSQESIEGDTAILLVRAIEIFGGRHVLTGQRPDLWEYSQLEQLTSSICCKLSRRVLAQENGESTEKVEEIDQQVDLEMQELTRRVLQGCSAINRLTRETFLHVVKSFCYVAYCSPETIDSHIDKVIFQDVI
notes: syn-copalyl diphosphate synthase OsCyc1 (OsCPS4), Oryza sativa, wild type; the cryo-EM methods say only 'OsCyc1'); the deposited entries tell the construct; Probably the same protein as m1 or m2; also called WT OsCyc1; source: E. coli BL21(DE3), purified; in buffer B
[2]
  stoichiometry N: 2 and 4 and 6

B2: OsCyc1^69–767 (N-terminal truncation variant of syn-copalyl diphosphate synthase from Oryza sativa) (enzyme, UniProt Q0JF02 69-767, looked up)
chain: QHEHTDELRETTTTMIDGIRTALRSIGEGEISISAYDTSLVALLKRLDGGDGPQFPSTIDWIVQNQLPDGSWGDASFFMMGDRIMSTLACVVALKSWNIHTDKCERGLLFIQENMWRLAHEEEDWMLVGFEIALPSLLDMAKDLDLDIPYDEPALKAIYAERERKLAKIPRDVLHSMPTTLLHSLEGMVDLDWEKLLKLRCLDGSFHCSPASTATAFQQTGDQKCFEYLDGIVKKFNGGVPCIYPLDVYERLWAVDRLTRLGISRHFTSEIEDCLDYIFRNWTPDGLAHTKNCPVKDIDDTAMGFRLLRLYGYQVDPCVLKKFEKDGKFFCLHGESNPSSVTPMYNTYRASQLKFPGDDGVLGRAEVFCRSFLQDRRGSNRMKDKWAIAKDIPGEVEYAMDYPWKASLPRIETRLYLDQYGGSGDVWIGKVLHRMTLFCNDLYLKAAKADFSNFQKECRVELNGLRRWYLRSNLEKFGGTDPQTTLMTSYFLASANIFEANRAAERLGWARVALLADAVSSHFRRIGGPKNSTSNLEELISLVPFDDAYSGSLREAWKQWLMAWTAKESSQESIEGDTAILLVRAIEIFGGRHVLTGQRPDLWEYSQLEQLTSSICCKLSRRVLAQENGESTEKVEEIDQQVDLEMQELTRRVLQGCSAINRLTRETFLHVVKSFCYVAYCSPETIDSHIDKVIFQDVI
notes: plastid targeting peptide removed; codon-optimized synthetic gene; monomer 80.8 kDa; Cloned in pET-24a(+) between NdeI and XhoI 'including a His-tag'; this cloning would usually give a C-terminal His6 (surmise); also called truncated OsCyc1; pseudo-mature protein
[3]
  stoichiometry N: 6
